Results on 3 molecules are retold here after paper PMC4103484, “Functional effects of polymorphisms on glucocorticoid receptor modulation of human anxiogenic substance-P gene promoter activity in primary amygdala neurones”.

Data set [1] has as its target T1, glucocorticoid receptor alpha (GRα) (human) (UniProt P04150).
T1 sequence: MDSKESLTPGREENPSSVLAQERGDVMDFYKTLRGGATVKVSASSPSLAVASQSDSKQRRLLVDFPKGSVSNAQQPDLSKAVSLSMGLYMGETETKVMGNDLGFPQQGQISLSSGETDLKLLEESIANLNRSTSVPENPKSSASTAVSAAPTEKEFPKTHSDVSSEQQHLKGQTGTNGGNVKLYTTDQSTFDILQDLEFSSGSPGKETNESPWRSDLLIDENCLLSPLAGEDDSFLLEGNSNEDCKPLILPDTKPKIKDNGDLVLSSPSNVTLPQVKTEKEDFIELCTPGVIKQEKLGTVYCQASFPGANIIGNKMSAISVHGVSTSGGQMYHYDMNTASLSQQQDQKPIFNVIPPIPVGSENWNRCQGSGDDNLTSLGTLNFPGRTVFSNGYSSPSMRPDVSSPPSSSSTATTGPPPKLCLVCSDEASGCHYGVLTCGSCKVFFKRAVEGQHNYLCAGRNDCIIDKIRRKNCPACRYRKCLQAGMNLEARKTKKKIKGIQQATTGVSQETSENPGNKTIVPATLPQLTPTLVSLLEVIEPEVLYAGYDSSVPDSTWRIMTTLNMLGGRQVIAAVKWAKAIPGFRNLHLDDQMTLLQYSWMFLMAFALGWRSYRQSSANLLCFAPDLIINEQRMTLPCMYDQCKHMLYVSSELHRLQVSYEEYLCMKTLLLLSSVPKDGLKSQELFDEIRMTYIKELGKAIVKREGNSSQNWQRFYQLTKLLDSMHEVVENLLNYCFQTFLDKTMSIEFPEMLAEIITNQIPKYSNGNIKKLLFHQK
In words: EMSA. The note with it: reference; EMSA: 20 fmol biotin probe with 2.0 uM GRα or 10 ug nuclear extract; buffer as Hay et al. 2005 with EDTA replaced by 50 uM ZnSO4; competitor 100x; 6% native …. In general terms: Mobility shift assays separate free from complexed probe on a gel.

For data set [2], the target named is T2, glucocorticoid receptor alpha (GRα) (human, UniProt P04150 1-777). The data set can be described thus: competition; 100x unlabelled, vs 2GR probe; EMSA: 20 fmol biotin probe with 2.0 uM GRα or 10 ug nuclear extract; buffer as Hay et al. 2005 with EDTA replaced by 50 uM ZnSO4; competitor 100x; 6% native gel, 0.5x TBE pH 8.3; binding salt, pH and temperature not stated. Conditions: protein: recombinant; chain copies: 2; blunt.

The target in data set [3] is T2, glucocorticoid receptor alpha (GRα). In words: EMSA; EMSA: 20 fmol biotin probe with 2.0 uM GRα or 10 ug nuclear extract; buffer as Hay et al. 2005 with EDTA replaced by 50 uM ZnSO4; competitor 100x; 6% native gel, 0.5x TBE pH 8.3; binding salt, pH and temperature not stated. Conditions: protein: recombinant; chain copies: 2; blunt.

“GAAGCAAAAAACGTCCTGTTCAACCCCTGCTCCTG (double strand) [SNP-G (SNPGR-G)]”: the binding signal in data set [1] was 100 % of SNP-G.

B1: RO (random oligonucleotide) (dsDNA)
DNA 1: CGAGCACCCTTCACCCTCCAGGCTTAACGG
DNA 2: CCGTTAAGCCTGGAGGGTGAAGGGTGCTCG
On to B1, for which the binding result in data set [2] is reported as “no binding”.

B2: GRE-cons (dsDNA)
DNA 1: TAAGTTTATGGTTACAAACTGTTCTTAAAACGAGG
DNA 2: CCTCGTTTTAAGAACAGTTTGTAACCATAAACTTA
On to B2, for which the binding result in data set [3] is “binds”.
